Results from publication PMC10648341, “Cloning and Functional Characterization of NADPH-Cytochrome P450 Reductases in Aconitum vilmorinianum” (Molecules, 2023).

Key:
CYP76AH1 = target: T1, CYP76AH1 (Salvia miltiorrhiza, UniProt S4UX02); assay: HPLC of yeast extracts, ferruginol formation; format: cell-based; settings: miltiradiene made by host yeast YJ14; co-expressed AvCPR1, AvCPR2 or SmCPR1
T1 construct: ORF in pESC-His, co-expressed with AvCPR1 (also AvCPR2 or SmCPR1) in miltiradiene-producing yeast YJ14; with NADPH--cytochrome P450 reductase 1 (Aconitum vilmorinianum)
T1 sequence (S4UX02 1-495): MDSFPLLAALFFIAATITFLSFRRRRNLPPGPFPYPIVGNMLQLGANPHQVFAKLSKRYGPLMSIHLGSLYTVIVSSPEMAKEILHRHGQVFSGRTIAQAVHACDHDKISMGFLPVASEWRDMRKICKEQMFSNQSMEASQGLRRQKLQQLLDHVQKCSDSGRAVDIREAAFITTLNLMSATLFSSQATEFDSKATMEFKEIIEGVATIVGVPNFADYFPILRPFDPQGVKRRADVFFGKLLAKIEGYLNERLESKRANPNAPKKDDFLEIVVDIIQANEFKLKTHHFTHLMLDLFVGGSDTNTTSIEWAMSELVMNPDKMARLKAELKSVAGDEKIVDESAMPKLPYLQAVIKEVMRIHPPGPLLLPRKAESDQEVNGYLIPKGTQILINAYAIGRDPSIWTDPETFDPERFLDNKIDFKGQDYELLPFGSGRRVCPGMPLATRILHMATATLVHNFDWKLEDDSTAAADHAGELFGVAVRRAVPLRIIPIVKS

cytochrome c = cytochrome c (UniProt P00004)
Sequence of cytochrome c (P00004 whole entry): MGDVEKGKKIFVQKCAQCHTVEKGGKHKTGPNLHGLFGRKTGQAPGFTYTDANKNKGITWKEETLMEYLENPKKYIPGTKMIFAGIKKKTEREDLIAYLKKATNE

Row | Km for cytochrome c: steady-state reduction of cytochrome c (0-200 μM) by 4 μg recombinant enzyme with 100 μmol/L NADPH, absorbance at 550 nm, 100 mM Tris-HCl, 0.1 mM EDTA, pH 7.4, 25 °C (cytochrome c) | Compound | HPLC of yeast extracts, ferruginol formation (CYP76AH1)
1 | – | CC(C)c1cc2c(cc1O)[C@@]1(C)CCCC(C)(C)[C@@H]1CC2 [ferruginol] | transgenic strains co-expressing AvCPRs or SmCPR with CYP76AH1 produced ferruginol
2 | 344 μmol·L^−1 | truncated AvCPR1 (NADPH-cytochrome P450 reductase 1 of Aconitum vilmorinianum, without the N-terminal membrane-anchoring region) (enzyme) | –
3 | 78.1 μmol·L^−1 | truncated AvCPR2 (NADPH-cytochrome P450 reductase 2 of Aconitum vilmorinianum, without the N-terminal membrane-anchoring region) (enzyme) | –
